Data reported in patent US20090203530A1, “Polymer evolution via templated synthesis” (priority 2005, published 2009).

Experiments:
[1] = target: T1, papain (Carica papaya, UniProt P00784); test: Fluorescence polarization-based papain binding assay; conditions: BFL-labelled controls; varying concentrations of papain
T1 construct: purchased Sigma-Aldrich
T1 sequence (P00784 134-345): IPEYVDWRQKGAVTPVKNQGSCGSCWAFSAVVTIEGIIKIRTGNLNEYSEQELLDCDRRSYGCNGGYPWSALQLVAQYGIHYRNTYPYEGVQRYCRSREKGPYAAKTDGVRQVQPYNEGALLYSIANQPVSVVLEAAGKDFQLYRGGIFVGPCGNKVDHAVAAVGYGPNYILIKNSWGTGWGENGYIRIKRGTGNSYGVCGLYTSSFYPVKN
Protocol: Purified PNA 18-mers prepared as described above were reacted with BODIPY-fluorescein succinamidyl ester (BFL-SE, Molecular Probes). For each labelling reaction, 25 μL of a 250-400 μM stock solution of PNA in H2O was mixed with 25 μL 0.2 M sodium bicarbonate (pH 8.0) plus 2.5 μL of a 20 mg/mL solution of BFL-SE in DMSO. After four hours at 25° C., 50 μL DMSO was added, and the labelling reaction was incubated for an additional 4 hours. The labelled product was purified by reverse-phase HPLC as described above. The addition of the BFL fluorophore on the N-terminal primary amine typically delayed the elution time of the PNA by ˜5 min, and the absorption of the eluted peak was monitored both at 260 nm and at 470 nm. Masses of labelled peptides were confirmed by MALDI mass spectrometry, as follows:
Fluorescence polarization-based papain affinity assays were carried out as follows. BFL-labelled PNA was used at concentrations between 5 nM and 10 nM. […] After the binding reactions were equilibrated (4 hours at 25° C.), they were loaded onto a Nunc opaque black 384-well plate, and fluorescence polarization was measured using the Analyst AD system (Molecular Devices) with a fluorescein filter. Fluorescence polarization data in FIGS. 5B and 6C is shown as the change in fluorescence polarization (calculated relative to the output in the absence of protein) as a function of papain concentration. […]

[2] = target: T1, papain; test: Enrichment assay by papain affinity selection of translated template mixtures; type: binding
Protocol: The methods used for in vitro papain affinity selection have been reported previously (Giesen (1998) NUCLEIC ACIDS RES. 26, 5004-5006). Papain-conjugated sepharose beads (50 μL) were prepared according to this protocol and combined with […] of translated and displaced PNA library. After 4 hours at 4° C. with slow mixing, the beads were filtered, washed three times with high salt buffer (50 mM Tris pH 7.5, 0.5 M NaCl), once with low salt buffer (50 mM Tris pH 7.5, 0.1 M NaCl), and resuspended in 50 μL papain selection buffer (50 mM Tris pH 7.5, 100 mM NaCl, 1 mM EDTA). One fifth of the beads were removed for PCR as described below.
The remaining beads (40 μL) were heated for 15 min at 95° C., cooled to 60° C., supplemented with an equal volume of fresh papain-linked sepharose beads; cooled rapidly to 4° C., and the selection was repeated. This protocol was repeated three times (four rounds total) for the first-generation selection (FIG. 4A) and was repeated twice (three rounds total) for the second-generation selection (FIG. 6A). After each round of affinity selection, PCR was performed using one fifth of the total beads. Filtered beads were resuspended in 18 μL NEB buffer 4 with BSA, 1 μL Hha I, and 1 μL HinPI I (all restriction endonucleases purchased from New England Biolabs). Reactions were incubated for 1.5 hours at 37° C., then added directly into 80 μL PCR master mix containing 5 μL Taq buffer, 5 μL 25 mM MgCl2, 1 μL 100 μM primer 1, 1 μL 100 μM primer 2, 1 μL 25 mM dNTPs, and 1 μL Taq DNA polymerase and 54 μL H2O. Primer sequences are as follows:
For the enrichment experiments described in FIG. 5A, […] total template:mixture (500:1 M1 template:P1 template; or 500:1 U1 template:P1 template) was translated as described above using library translation conditions. The individual template sequences are as follows:
The translated products were displaced as described above, subjected to three rounds of selection against papain as described above, and the resulting bound DNA templates were digested and amplified by PCR as described above. […]

CC1=CC(C)=[N+]2C1=Cc1ccc(CCC(=O)NCCN)n1[B-]2(F)F [BFL fluorophore, BFL-ethylenediamine]
papain affinity (fluorescence polarization) [1]: did not bind papain

B1: P1 translation product: PNA 40-mer selected for papain binding, covalently linked to its DNA template (SEQ ID NO: 16) (conjugate)
DNA: TGCGACGGTGCGCACCGTCGCAAGCCATTCATGCATGCACCCAGGCATGCATTCATTCATGCGGACAAGGTGCGCACCTTGTCC
modifications: DNA, backbone and methylation of C not given here; DNA template covalently linked to PNA translation product, further chemistry not fully specified
enrichment after papain affinity selection ([2]; 500:1 M1:P1 template mixture, translated, displaced, three rounds of selection, PCR and restriction digestion): ~500 fold | enrichment after papain affinity selection ([2]; 500:1 mixture of U1 (unrelated):P1 templates): 500 fold

B2: U1: unrelated library sequence, translated from template SEQ ID NO: 18 (conjugate)
DNA: TGCGACGGTGCGCACCGTCGCAAGTCAGTCACCCAATCACTCACGCATCCAGTCACCCAACCGGACAAGGTGCGCACCTTGTCC
modifications: DNA, backbone and methylation of C not given here; DNA template covalently linked to PNA translation product, further chemistry not fully specified
enrichment after papain affinity selection ([2]; 500:1 ratio of M1:U1 DNA templates, translation, displacement, selection): no detectable enrichment
